Assay results reported in patent publication US9879306B2, “Luciferase biosensors for cAMP” (PROMEGA CORPORATION, priority 2008, dated 2018).
Residue numbers refer to the chain shown, from its start. Numbers in names are those of the source.

B1: L9-ILY: L9 background with Luc2.0 F369I, F518L and RIIβB F407Y; SEQ ID NO:82, 83 (protein)
chain: MPGAVGKVVPFIEAKVVDLDTGKTLGVNQRGELCVRGPMIMSGYVNNPEATNALIDKDGWLHSGDIAYWDEDEHFFIVDRLKSLIKYKGYQVAPAELESILLQHPNIFDAGVAGLPDDDAGELPAAVVVLEHGKTMTEKEIVDYVASQVTTAKKLRGGVVLVDEVPKGLTGKLDARKIREILIKAKKGSIAGCGDAGEGMYESFIESLPILKSLEFSARLKVVDVIGTKVYNDGEQIIAQGDSADSFYIIESGEVKITMKRKGKSEVEENGAVEIARCSRGQYFGELALVTNKPRAASAHAIGTVKCLAMDVQAFERLLGPCMEIMKRNIATYEEQLVALYGTNMDIVAKNIKKGPAPLYPLEDGTAGEQLHKAMKRYALVPGTIAFTDAHIEVDITYAEYFEMSVRLAEAMKRYGLNTNHRIVVCSENSLQFFMPVLGALFIGVAVAPANDIYNERELLNSMGISQPTVVFVSKKGLQKILNVQKKLPIIQKIIIMDSKTDYQGFQSMYTFVTSHLPPGFNEYDFVPESFDRDKTIALIMNSSGSTGLPKGVALPHRTACVRFSHARDPIFGNQIIPDTAILSVVPFHHGFGMFTTLGYLICGFRVVLMYRFEEELFLRSLQDYKIQSALLVPTLFSFFAKSTLIDKYDLSNLHEIASGGAPLSKEVGEAVAKRFHLPGIRQGYGLTETTSAILITPEGV
B2: L9-I: L9 background with Luc2.0 F369I; SEQ ID NO:92, 93 (protein)
chain: B1 chain with L161F, I210F, Y248F, Y341F, L359F
B3: L9-L: L9 background with Luc2.0 F518L; SEQ ID NO:94, 95 (protein)
chain: B1 chain with I12F, I210F, Y248F, Y341F, L359F
B4: L9-ILQY: L9 background with Luc2.0 F369I, F518L, K541Q and RIIβB F407Y; SEQ ID NO:80, 81 (protein)
chain: B1 chain with K184Q, I210F, Y248F, L359F
B5: 15H6: 7A1 biosensor with F433Y, M493V in Luc2.0 and modified linker …; SEQ ID NO:107, 108 (protein)
chain: MPGAVGKVVPFFEAKVVDLDTGKTLGVNQRGELCVRGPMIMSGYVNNPEATNALIDKDGWLHSGDIAYWDEDEHFYIVDRLKSLIKYKGYQVAPAELESILLQHPNIFDAGVAGLPDDDAGELPAAVVVLEHGKTVTEKEIVDYVASQVTTAKKLRGGVVFVDEVPKGLTGKLDARKIREILIKAKKGSNWDSGCSRECMYESFIESLPFLKSLEFSARLKVVDVIGTKVYNDGEQIIAQGDSADSFFIIESGEVKITMKRKGKSEVEENGAVEIARCSRGQYFGELALVTNKPRAASAHAIGTVKCLAMDVQAFERLLGPCMEIMKRNIATYEEQLVALFGTNMDIVAKNIKKGPAPFYPLEDGTAGEQLHKAMKRYALVPGTIAFTDAHIEVDITYAEYFEMSVRLAEAMKRYGLNTNHRIVVCSENSLQFFMPVLGALFIGVAVAPANDIYNERELLNSMGISQPTVVFVSKKGLQKILNVQKKLPIIQKIIIMDSKTDYQGFQSMYTFVTSHLPPGFNEYDFVPESFDRDKTIALIMNSSGSTGLPKGVALPHRTACVRFSHARDPIFGNQIIPDTAILSVVPFHHGFGMFTTLGYLICGFRVVLMYRFEEELFLRSLQDYKIQSALLVPTLFSFFAKSTLIDKYDLSNLHEIASGGAPLSKEVGEAVAKRFHLPGIRQGYGLTETTSAILITPEGV
notes: 7A1 biosensor with F433Y, M493V in Luc2.0 and modified linker …
B6: 1B3: 7A1 biosensor with A338E in RIIβb; SEQ ID NO:33, 34 (protein)
chain: B5 chain with Y76F, V136M, C199G, A272E
B7: 9G4: 7A1 biosensor with E382K in RIIβb; SEQ ID NO:37, 38 (protein)
chain: B5 chain with Y76F, V136M, C199G, E316K
B8: 16B3: 7A1 biosensor with S440N in Luc2.0; SEQ ID NO:72, 73 (protein)
chain: B5 chain with Y76F, S83N, V136M, C199G

Tests used:
Assay type in all cases: cell-based
GPR41 [1] = biological target: T1, GPR41 (Homo sapiens, UniProt O14843); assay: Sodium proprionate CRC with biosensor variants in HEK293 cells stably expressing GPR41; conditions: for Fold Response Na proprionate + FSK(1 μM): with FSK 1 μM; for Fold Response Na proprionate: without FSK, ratio of induced to uninduced signal
T1 sequence (O14843 1-346): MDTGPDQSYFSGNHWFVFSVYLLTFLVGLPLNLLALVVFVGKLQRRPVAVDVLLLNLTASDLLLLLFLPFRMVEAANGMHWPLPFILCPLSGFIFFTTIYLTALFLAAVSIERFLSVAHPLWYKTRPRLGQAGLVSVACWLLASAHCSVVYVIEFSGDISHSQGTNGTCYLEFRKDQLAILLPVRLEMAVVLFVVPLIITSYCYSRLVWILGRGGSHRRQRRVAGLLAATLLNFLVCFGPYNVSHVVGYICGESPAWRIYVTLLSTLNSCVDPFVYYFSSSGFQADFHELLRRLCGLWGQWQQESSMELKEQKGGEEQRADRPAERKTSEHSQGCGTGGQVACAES
Description: (§1) After 24 hours, the cells were transiently transfected with one of the cAMP biosensor variants (Tables 7A and 7B). After another 24 hours, the cells were equilibrated for 2 hours at room temperature using 5 mM EF-luc in CO2 independent media with 10% FBS. Prior to the addition of the compounds, luminescence was measured. The compounds (12× stock in CO2 independent media without FBS) were then added to the cells. For GPR41 expressing cells, sodium proprionate CRC was added. […] The cells were allowed to incubate another 30 minutes and luminescence read on a Varioskan Flash. EC50 values and fold responses were calculated for each of the clones with each of the compounds with or without FSK. In addition, variants […]7 (Example VIIB), 16A2 (Example VIIB) and GS358 were also screened.

GPR41 [2] = assay: as above; conditions: ratio of RLU of FSK treated well to untreated well
Description: as §1

dopamine D2 receptor = biological target: T2, dopamine D2 receptor (Homo sapiens, UniProt P14416); assay: Forskolin, dopamine and haloperidol responses of biosensor clones in HEK293 cells stably expressing the dopamine D2 receptor; conditions: for Dopamine Induced: 3 μM FSK + 0.3 μM dopamine; for Dopamine Induced / Forskolin (FSK) Induced / Forskolin (FSK) Uninduced: 10 minutes; for Forskolin (FSK) Induced: 3 μM FSK; for Halo Induced: 10 μM Haloperidol pre-treatment, then 3 μM FSK + 0.3 μM dopamine; for Dopamine Response: RLU agonist-treated / forskolin-treated; for Forskolin (FSK) Response: RLU forskolin-treated / untreated; for Halo Response: RLU haloperidol then FSK + dopamine / FSK + dopamine alone; for Forskolin (FSK) Uninduced: untreated (media alone)
T2 construct: expressed in transfected cells
Source text: To measure changes in the intracellular concentration of cAMP, HEK293 cells are transiently transfected with mutant cAMP biosensors followed by treatment with compounds known to increase or decrease the intracellular cAMP concentration through GPCR activation of Gs- or Gi-coupled receptors, respectively.
HEK293 cells stably expressing the dopamine D2 receptor were transiently transfected with the mutant cAMP biosensors from Example VIIB. Cells were also transfected with either 7A1 (Example III) or GS358 (parent biosensor) as controls. Cells were equilibrated for 2 hours at room temperature using 2 mM EF-luc. Antagonist assay wells were pre-treated for 10-15 minutes at room temperature with 10 μM Haloperidol (Halo). Next, the following reagents were added to their respective wells: media alone to “untreated” samples; 3 μM forskolin (FSK) to “forskolin-treated” samples; 3 μM FSK+0.3 μM dopamine to “agonist-treated” samples; and 3 μM FSK+0.3 μM dopamine to the aforementioned wells pre-treated with Halo. The cells were then incubated at room temperature for 10 minutes and luminescence was measured. Fold response for FSK was calculated by dividing the RLU from “forskolin-treated” cells by the RLU from the “untreated” cells. Fold response for dopamine treatment was calculated by dividing the RLU from the “agonist-treated” cells by the RLU from the “forskolin-treated” cells. Fold response for Haloperidol treatment was calculated by dividing the RLU from the cells treated with haloperidol then forskolin plus dopamine by the RLU of cells treated with forskolin plus dopamine alone.

HEK293 cells = assay: Luminescence and fold response of biosensor clones in HEK293 cells after isoproterenol or FSK; conditions: for Isoproterenol-5 minutes Induced / Isoproterenol-5 minutes Resp: 5 minutes after isoproterenol; for Forskolin (FSK) Induced / Forskolin (FSK) Resp: 15 minutes after FSK; for Isoproterenol-15 minutes Induced / Isoproterenol-15 minutes Resp: 15 minutes after isoproterenol; for Isoproterenol-5 minutes Resp / Forskolin (FSK) Resp / Isoproterenol-15 minutes Resp: RLU induced / RLU uninduced; for Isoproterenol-5 minutes Uninduced / Forskolin (FSK) Uninduced / Isoproterenol-15 minutes Uninduced: uninduced cells; for Forskolin (FSK) Uninduced / Isoproterenol-15 minutes Uninduced: 15 minutes
Description: B. HEK293 cells were transiently transfected with plasmid DNAs encoding various biosensor mutants as above. These biosensor mutants contained the E284A and V316I mutation in the RIIbetaB cAMP binding domain and the modified linker sequence 7A1 (GSNWDSGCSREG; SEQ ID NO: 129). The clones also contained the additional mutations outlined in Table 5. Cells were equilibrated for 2 hours at room temperature with 2 mM EF-Luc. Luminescence was measured 5 and 15 minutes after addition of the isoproterenol and 15 minutes after addition of FSK. Fold response (response; Resp.) was calculated by dividing relative light units (RLUs) from induced cells by the RLUs from uninduced cells. As a control, the biosensor GS358 and 7A1 were included.

T2 sequence (P14416 whole entry, species assumed): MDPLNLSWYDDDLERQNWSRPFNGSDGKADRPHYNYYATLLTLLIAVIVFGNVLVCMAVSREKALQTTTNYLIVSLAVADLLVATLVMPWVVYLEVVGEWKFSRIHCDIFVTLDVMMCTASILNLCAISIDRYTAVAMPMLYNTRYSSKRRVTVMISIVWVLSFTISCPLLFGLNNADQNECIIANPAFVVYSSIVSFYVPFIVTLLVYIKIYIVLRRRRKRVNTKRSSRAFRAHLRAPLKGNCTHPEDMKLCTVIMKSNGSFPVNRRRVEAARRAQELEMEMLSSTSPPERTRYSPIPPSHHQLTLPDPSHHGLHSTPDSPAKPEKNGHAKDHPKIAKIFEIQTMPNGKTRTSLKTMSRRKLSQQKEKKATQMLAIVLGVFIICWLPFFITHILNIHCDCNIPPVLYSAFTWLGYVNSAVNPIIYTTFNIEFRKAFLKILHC

Molecule | Fold Response Na proprionate + FSK(1 μM) (GPR41 [1]) [fold] | Fold Response Na proprionate (GPR41 [1]) [fold] | Fold Signal Change (GPR41 [2]) [fold] | Dopamine Induced (dopamine D2 receptor) [RLU] | Forskolin (FSK) Induced (dopamine D2 receptor) [RLU] | Halo Induced (dopamine D2 receptor) [RLU] | Dopamine Response (dopamine D2 receptor) [fold] | Forskolin (FSK) Response (dopamine D2 receptor) [fold] | Halo Response (dopamine D2 receptor) [fold] | Forskolin (FSK) Uninduced (dopamine D2 receptor) [RLU] | Isoproterenol-5 minutes Induced (HEK293 cells) [RLU] | Forskolin (FSK) Induced (HEK293 cells) [RLU] | Isoproterenol-15 minutes Induced (HEK293 cells) [RLU] | Isoproterenol-5 minutes Resp (HEK293 cells) [fold] | Forskolin (FSK) Resp (HEK293 cells) [fold] | Isoproterenol-15 minutes Resp (HEK293 cells) [fold] | Isoproterenol-5 minutes Uninduced (HEK293 cells) [RLU] | Forskolin (FSK) Uninduced (HEK293 cells) [RLU] | Isoproterenol-15 minutes Uninduced (HEK293 cells) [RLU]
B1 | 4.91 | 3.34 | 161.2 | – | – | – | – | – | – | – | – | – | – | – | – | – | – | – | –
B2 | 3.83 | 3.61 | 83.5 | – | – | – | – | – | – | – | – | – | – | – | – | – | – | – | –
B3 | 5.72 | 3.04 | 72.2 | – | – | – | – | – | – | – | – | – | – | – | – | – | – | – | –
B4 | – | – | 152.7 | – | – | – | – | – | – | – | – | – | – | – | – | – | – | – | –
B5 | – | – | – | 30 | 7177 | 65 | 0.56 | 25 | 2.2 | 283 | 91567 | 29500 | 244700 | 85 | 57 | 61 | 1073 | 4040 | 4040
B6 | – | – | – | 1898 | 8410 | 5228 | 0.23 | 18 | 2.8 | 460 | 59767 | 305500 | 344375 | 36 | 47 | 53 | 1673 | 6460 | 6460
B7 | – | – | – | 1735 | 4133 | 4370 | 0.42 | 14 | 2.5 | 293 | 27930 | 263020 | 264500 | 50 | 46 | 46 | 553 | 5760 | 5760
B8 | – | – | – | 3050 | 6400 | 6188 | 0.48 | 17 | 2.0 | 370 | 72003 | 257605 | 248415 | 35 | 39 | 38 | 2063 | 6555 | 6555
